Four substances from US20230365658A1 can be followed below.

Values joined by “and” are separate entries in the source; they are usually repeats but may differ in a detail not shown here. Identical values can stand only once. Like-named read-outs stand apart in the source and are kept apart here.

Experiment [1] has as its target COV2-RBD (rpk9) Wuhan-Hu-1 (WT) (SARS-CoV-2).
In experiment [2] the target is COV2-RBD (rpk9) B.1.1.529 (BA.1) (SARS-CoV-2).
The target is the same in experiment [3]. The experiment can be described thus: Gyrolab immunoassay, reference titration, relative binding (%).
The target of experiment [4] is COV2-RBD (rpk9) Wuhan-Hu-1 (WT) (SARS-CoV-2). The source holds these as a separate data set.
Experiment [5] has the same target. In words: Gyros full-curve immunoassay, mAb titrated on RBD, relative binding (FI).
In experiment [6] the target is COV2-RBD (rpk9) B.1.1.529 (BA.1) (SARS-CoV-2). The description is as above.
The target in experiment [7] is SARS-CoV-2 Spike-RBD, Delta (SARS-CoV-2) (UniProt P0DTC2). The description is as above.
Experiment [8] addresses COV2-RBD (rpk9) Wuhan-Hu-1 (WT) (SARS-CoV-2). The experiment can be described thus: Gyrolab immunoassay, IgG titrated on Spike-RBD, relative binding (FI).
Experiment [9] addresses COV2-RBD (rpk9) B.1.1.529 (BA.1) (SARS-CoV-2). The experiment is described as above.
The target in experiment [10] is COV2-RBD (rpk9) Wuhan-Hu-1 (WT) (SARS-CoV-2). The experiment can be described thus: Gyrolab full-curve immunoassay (LLNL Gyros) on RBD.
For experiment [11], the target named is COV2-RBD (rpk9) B.1.1.529 (BA.1) (SARS-CoV-2). In words: Gyrolab full-curve immunoassay (LLNL Gyros) on RBD.
For experiment [12], the target named is SARS-CoV-2 Spike-RBD, Delta (SARS-CoV-2) (UniProt P0DTC2). The experiment can be described thus: Gyrolab immunoassay, reference titration, relative binding (%).
In experiment [13] the target is SARS-CoV-2 spike (S) glycoprotein, Omicron BA.2 (SARS-CoV-2) (UniProt P0DTC2). The experiment can be described thus: cell-based or functional assay.
The target of experiment [14] is SARS-CoV-2 spike (S) glycoprotein, Omicron BA.1 (SARS-CoV-2) (UniProt P0DTC2). In words: cell-based or functional assay.
The target of experiment [15] is SARS-CoV-2 spike (S) glycoprotein, Omicron BA.1.1 (SARS-CoV-2) (UniProt P0DTC2). In words: cell-based or functional assay.
Experiment [16] deals with SARS-CoV-2 spike (S) glycoprotein, Delta (B.1.617.2) (SARS-CoV-2) (UniProt P0DTC2). The experiment can be described thus: cell-based or functional assay.
Experiment [17] addresses SARS-CoV-2 spike (S) glycoprotein, Omicron BA.5.5 (SARS-CoV-2) (UniProt P0DTC2). In words: cell-based or functional assay.
Experiment [18] has as its target SARS-CoV-2 spike (S) glycoprotein, Omicron BA.4 (SARS-CoV-2) (UniProt P0DTC2). The experiment can be described thus: cell-based or functional assay.

With COV2-2130 (antibody), the concentration giving a half-maximal response (EC50) in experiment [1] is 1.72 µg/mL and 0.675 µg/mL; in experiment [2], 2.77 µg/mL and 1.75 µg/mL. The values for the EC50 (read off the curve) in experiment [3] and in [4] were 2 µg/mL and 0.8 µg/mL, respectively.

Regarding S309 (antibody), the EC50 (read off the curve) in [5] is 2 µg/mL; in experiment [6] it was 4 µg/mL; in [7], 2 µg/mL; in experiment [8], 2 µg/mL; in experiment [9] it was 4 µg/mL; in [3], 6 µg/mL. In addition, the EC50 (read off the curve) in experiment [12] and in [4] was 2 µg/mL in each case. In addition, the results for the EC50 in experiment [1] and in experiment [2] were 5.76 µg/mL and 17.2 µg/mL, respectively. Further, the figures for the AUC(logC) in [10] and in experiment [11] were 60.6 and 53.2, respectively. For the same substance, the pseudovirus neutralization IC50 turned out to be 0.109 µg/mL in experiment [13], 0.0632 µg/mL in [14] and 0.0332 µg/mL in [15].

As for rDENV-2D22 (antibody), the authentic virus neutralization IC50 (FRNT) in experiment [16], in experiment [14], in experiment [17], in experiment [15] and in experiment [18] was greater than 10 µg/mL throughout. The normalized pseudoneutralization IC50 in experiment [15] and in experiment [18] was greater than 10 µg/mL in each case.

With rS2K146 (antibody), the normalized pseudoneutralization IC50 was found to be 0.00336 µg/mL in experiment [13], 0.00438 µg/mL in experiment [14], 0.00209 µg/mL in [15] and 0.036 µg/mL in experiment [18].
